This data set deals with H1-CΔ97 (histone H1o lacking C-terminal domain) (mouse). Nature of the data set: EMSA. The settings on record: no competitor DNA; EMSA: 50 mM NaCl, 25 mM Tris-HCl pH 7.5, 1 mM EDTA, 1 mM DTT, 100 ug/ml acetylated BSA, 3% glycerol; 30 min on ice; gels 0.5x TBE, 4 C. For orientation: Mobility shift assays separate free from complexed probe on a gel.

By Kd is commonly meant the free concentration of one partner at which half of the binding sites on the other are occupied at equilibrium, for simple one-to-one binding. Regarding hemicatenated DNA loops (hcDNA), the Kd was 0.035 µM.

For the origin of these results see article PMC3923860.
